Measured values as given in US20260148804A1 (NANJING GENSCRIPT BIOTECH, published 2026).

Molecular target: T1, recombinant TNFRSF9 protein (Homo sapiens (Human), UniProt Q07011 24-186)
T1 construct: also called 4-1BB; antigen
Test: indirect ELISA, plate coated with 0.5 ug/ml recombinant TNFRSF9 protein, antibody titrated 3-fold from 1 ug/ml
Experimental: The antibody affinity detection method was an enzyme-linked immunosorbent assay (ELISA) based on an indirect method. Indirect ELISA was used for evaluating the ability of the purified antibody to bind the antigen TNFRSF9 protein. The specific steps were as follows: the ELISA plate was coated with 0.5 μg/ml recombinant TNFRSF9 protein in PBS at 100 μl/well at 4° C. overnight. The plate was washed with PBS-T (0.05% Tween) and blocked with 250 μl/well of PBST containing 1% BSA at 37° C. for 2 hours. Subsequently, the blocking solution was discarded, and 100 μl of the 1 μg/ml purified antibody was added to the first well and 3-fold diluted in a gradient to prepare a total of 11 serial test concentrations, and additionally a blank well was prepared. The plate was then incubated at 37° C. for 1 hour. […] The plate was washed four times with PBST, a TMB color development solution (GenScript) was then added, and the plate was incubated in the dark at 25° C. for 15 minutes. […] The plate was read at 450 nm using a microplate reader.

B1: 81E11WTH (antibody, V domains shown)
VH: QSVKESEGGLFKPTDTLTLACTVSGFSLSYNAITWVRQAPGNGLEWIGVINYDGTTVYASWAKSRSTITRNTNLNTVTLKMTSLTAADTATYFCARNFNIWGPGTLVTVSS
VL: AAVLTQTPSPVSVTVGGTVTINCQASQSVDNNNYLAWFQQKPGQPPKQLIYSASTLASGVSSRFKGSGSGTQFTLTISGVQCDDAATYYCLGEFSASSGDWNAFGGGTEVVVK
notes: also called control 81E11WTH
- EC50: 2.6 ng/mL
